Assay: soluble on expression in E. coli; label from the status in PepcDB or PDB records

Sequence | soluble on expression in E. coli
MGSDKIHHHHHHENLYFQGMIKLIATDIDGTLVKDGSLLIDPEYMSVIDRLIDKGIIFVVCSGRQFSSEFKLFAPIKHKLLYITDGGTVVRTPKEILKTYPMDEDIWKGMCRMVRDELPACDYFAATPDFCFAEDGGSPIFHLLRDSYGFEMREVDDITRLDRNDIIKFTVFHPDKCEELCTPVFIPAWNKKAHLAAAGKEWVDCNAKGVSKWTALSYLIDRFDLLPDEVCCFGDNLNDIEMLQNAGISYAVSNARQEVIAAAKHTCAPYWENGVLSVLKSFL | soluble
MGSDKIHHHHHHMSTVSAQEAVSLREAAERRSQFARVPARSVSAPPRKKWFRSKQQLSGAADGMDGSSRAGSQEIVCDEFTKKLVAAITTWHDIHSSLLQLSIERSSNDSNEEHENVSVSSESSWSSASDSESDEDSATGRDSTNNHLSASAARFSISNPDLTNCQIKQMFPEMADHWR | not soluble
SIDSKLQTLGEQLMQGKRGAIVMIEPETGEVLCLVSSPSYDPSLLAGKDRGKNHLEMEHDRNKPLYARAIQATYPPGSTFKPAQGAIFLQEGVIRPTDAFSCYHGFPPLNNRPACHSHGSPLSLVPALATSCNAFFCWGLRAMLDNRRFYPSVQEAFEHWKNRIVGLGFGYRLGLDLPGERRGYIPNSKVYDKAYKGRWNSSTIISISIGQGEILATPLQIANLGVIIANRGRYRRPHVVKAIQGIPLDTAYTNWQNSGISPANMEYIVEGMARAVTGGTCHAANFAPGEIEVCGKTGTAENPHGKDHSAFLGFAPRNNPKVVVSVYVENGGFGAVYGVPIGRVMMEYYLREGKLSPEGEAVATKMSNTAIHYSNVF | not soluble
MDAIKKKMQAMKIEKDNALDRADAAEEKVRQITEKLERVEEELRDTQKKMTQTGDDLDKAQEDLSAATSKLEEKEKTVQEAEAEVASLNRRMTLLEEELERAEERLKIATEKLEEATHNVDESERVRKVMENRSLQDEERANTVEAQLKEAQLLAEEADRKYDEVARKLAMVEADLERAEERAEAGENKIVELEEELRVVGNNLKSLEVSEEKALQREDSYEEQIRTVSSRLKEAETRAEFAERSVQKLQKEVDRLEDELVHEKERYKTISEELDSTFQELSGY | not soluble
MPLEASELKPTAGPLEASELKPTAGPLEASELKPTAGPLEASELKPTAGPLEASELKPTAGPLEASELKPTAGPLEASELKPTAGMKLKGRGIVKGVAEGELVVSRKPLSFLGGVDPNTGIITDPESDIQGEKITGKILAFPRGKGSTVGSYVIYALAKKGTGPKAIIVEEAEAIVAVGAIIAGIPLVTGIDISKLKSGMKVRVDGERGEVEIIAQGDLLEHHHHHH | not soluble
FPQLPPAPDDYPTFPDTSTWPVVFPELPAAPYGGPCRPPQHTSKAAAPRIPADRLPNHVAIVMDGNGRWATQRGLARTEGHKMGEAVVIDIACGAIELGIKWLSLYAFSTENWKRSPEEVRFLMGFNRDVVRRRRDTLKKLGVRIRWVGSRPRLWRSVINELAVAEEMTKSNDVITINYCVNYGGRTEITEATREIAREVAAGRLNPERITESTIARHLQRPDIPDVDLFLRTSGEQRSSNFMLWQAAYAEYIFQDKLWPDYDRRDLWAACEEYASRTRRFGSA | soluble
MRYHIALVGRRNSGKSSLLNMLAGQQISIVSDIKGTTTDAVAKAYELQPLGPVTFYDTAGIDDEGTLGAMRVSATRRVLFRSDMALLVVDEQGLCPSDMALIDEIRQLQMPILMVFNKADICTPKAEDIAFCQNQSLPFIVVSAATGLAGKQLKQLMVELAPAEYKQEPLLAGDLYQAGDVILCVVPIDMAAPKGRLILPQVQILREALDRSAIAMVVKETELAQALSVVTPKLVISDAQAIKQVAAIVPDAVPLTTFSTLFARFKGDLAALATGADALDTLQDGDKVLISEACSHNVQEDDIGRVKLPRWINSYTGKQLEFVVTSGHDFPNDLEQYALVIHCGACMFNRNEMLRRIRECQRRQVPITNYGVAISKLQGVLPRVLTPFNRNPQQLEHHHHHH | soluble
MKRTVTVKLQPSKAQEETLKELAIISSKAWNKVNYLRRQEFFEGKPVDFLKTEKIVYEEFKSEIGSATVQQICRKNADAWRSFFSLIRSKRNGELPKWFKPKPPEYVKEGGLIILRNDQYKIEGNKLILKGLGKFKRLEVQFKGRIHLKGKQGRLEITFDPIRRKWYAHISYTVKEKLYGGEWVEVLRQPLGNLSAGIDLGVNNLMAVYVENGESFLVNGRPLKSIDFYWRKRIAEYQSKLNKSGVKKGRKLSKMHQKAKLQAKHYINTAIRRTVEKLYHLGVSRIVVGYPKGISRNSDKGKKQNYLLSHVWRFNYVIKRLREVAEEYGIQVLIVDEAFTSKLCPVCGKPHKGQGLFEDYLSVPRRGLPLMPTWLELSTFLEHHHHHH | soluble
MKTLMVFDPAMCCSTGVCGTDVDQALVDFSTDVQWLKQCGVQIERFNLAQQPMSFVQNEKVKAFIEASGAEGLPLLLLDGETVMAGRYPKRAELARWFGIPLDKVGLAPG | soluble
MTLENNMDKKLFCISTYGCQMNEEDSEKLSGMLKSQGYERTENKEEASIIIFNTCCVRENAENKVFGNLGQLKQLKKKNPNLVIAICGCMMQQVGMADKVLKTFPYVDIIFGTHNAHKFPEYLHRVLQEGVQVKEILNKEEGIVEGLPIDRKSDVKAFVTIMYGCNNFCTYCIVPYVRGRERSRKSEDIIKEIEELVSQGYKEITLLGQNVNSYGKGLEEDIDFAGLLRKVNEVKGLERVRFMTSHPKDLSDDVIMAIKECDKLCEQVHLPVQSGSSRILKEMNRHYDREYYLDLVKKIKSEIPDVTLTTDIIIGFPGETEEDFLDTLSLCEEVGYDSAFTFIYSRRNHTPADKMENQIPDDIKHDRFNRLVEAINKKVVIKNKEYEGKVVEVLVEGPSKNDETKLTGRTRNGKLVNFAGDEKLVGELVNLKIVRAQPFSLIGEIVE | soluble
MSAFKKSLLVAGVAMILSNNVFADEGHGIVKFKGEVISAPCSIKPGDEDLTVNLGEVADTVLKSDQKSLAEPFTIHLQDCMLSQGGTTYSKAKVTFTTANTMTGQSDLLKNTKETEIGGATGVGVRILDSQSGEVTLGTPVVITFNNTNSYQELNFKARMESPSKDATPGNVYAQADYKIAYE | soluble
MAHHHHHHMALRRLVKMSTTAEECAAVSELFRQYRHPNLVPLTNVLVTDEFVMGSADVIMEYKFITGAKSLNEAFINEGKATEGLLWSFACQMVSLMRAFHETSTPLRGLHWTKILFVPVSSRFYFSGVGFMDVMEPKGSAHQSAALMKHDIQSLGLLLLQLSTGNSNAKPEDFTAQPAKGYSGIFWLLVKACIDGTADVVTLCRALGERMSMEVAHQEGHADRLISQCGKEAHNGRIMRLMIKLNFVLESLHDFPEHSAEANNRYALRLFSQYVFNQVDERHRTRLDWGHVFHSLNKLDCGSEELVQLIGNDESNTILVISYRDLRDTLERAFEQLQPPPNEGDVQPFTVTVGTTSATL | not soluble
MKITTWNVNSLNVRLPQVQNLLADNPPDILVLQELKLDQDKFPAAALQMMGWHCVWSGQKTYNGVAIVSRSVPQDVHFGLPALPDDPQRRVIAATVSGVRVINVYCVNGEALDSPKFKYKEQWFAALTEFVRDEMTRHGKLVLLGDFNIAPADADCYDPEKWHEKIHCSSVERQWFQNLLDLGLTDSLRQVHPEGAFYTWFDYRGAMFQRKLGLRIDHILVSPAMAAALKDVRVDLETRALERPSDHAPVTAEFDW | soluble
MRLEECNILFELLTEIQDEAGSMEKIVHKTLQRLSQLLAADRCSMFICRSRNGIPEVATRLLNVTPTSKFEDNLVNPDKETVFPLDIGIAGWVAHTKKFFNIPDVKKNNHFSDYLDKKTGYTTVNMMAIPITQGKEVLAVVMALNKLNASEFSKEDEEVFKKYLNFISLVLRLEHHHHHH | soluble
MGSDKIHHHHHHMHQDTVRATAFAMPLTSPAYPVGPYRFRNREYLIITYRTDPKKLRSLVPEPLELSEPLVKFEFIRMPDSTGFGNYTESGQVIPVTFRGRKGSYTHCMFLNDHPPIAGGRELWGFPKKLATPTLRTETDTLVGTLDYGPVRVATATMGYKHEAADLSAVRSSLAEPNFLLKIIPHVDGTPRICELVEYHLEDVDLRGAWAGPASLNLWSHALAPVAELPVLEVVSAMHIVADLTLALGKVVHDYLPKSEPRDLKGRSHAFAE | not soluble
MYVTVTEAAYKKIMDTIPSEAKYIKLFYDNEGCGCVMSGIIDLVAVAEKDERDVDIESSTMNFIADRTKLVFMDDKLTVDWHEGGGTFQLKSPSQFYNPNMKLHVRVLEHHHHHH | soluble
VSFNANEVTHVDTPQEALAASLNKFGEVNLEYMENLSETGRQELLTQLENRIFYNPMMKNYEIKDRFIAGNVVAKVEWIENYLKDYPDDDASKKSLEALQKAIPEPISFELLDFNLGERWIPVSVYEEFAGYLFEAKAHIHYTESIDEFSVSFEETNANITDRYYVKGEKRGYYGNDLLKHALHNTVPDITKTVQDEEGNDIKVRDAEAIQLADAKINEIRSAFTGWLNEQLPEFKQHLADMYNRKFNCYVRPDYDGSLQSF | soluble
MLKQSMHSFVLLYPNVLLEGWNVEKVSERYEGEKWGTFWFQVVTPTGMFRVKEFFLDIMEPVFPDSCISQAKGDCFQYKGLVYWKGINYKGKESYVTSIWKTQVEISVDHGYVNQDEMERFLFELQPVNMELGKTILHTSFHLLSFQAKRSEMGEIGRCREWNAPDDVSYVNLLIHEKLNWKLESVGFGNDETQYVYWDEVNKLYALWVCRHKNKAYYPISSWTMNYGPKQIINGLEFYSHPNRGTVVYEDLGNEQIAYVFRGNPCTNFEQVKELFACL | not soluble
MIVFSDLDRSIIYSNKFLNADSKYANIEIYREKEISYISLDTINLIKQIQYYGMFIPTTTRTVEQFKRIEFNKYGIYFPWSITSNGGVILKDNEILKSWSEKIDKLKSNYEPIESMIHKFKDYLNVDGITNFKVAEDTFFYIVVDLSRFNLDSIKEYTNILESKNWKFYVSGRKIYFIPKEISKENAIKYLTKELGIEYFYAVGDSIMDYGMLNISNKSYVLKHGDINKNEIENSFISSSFNGMSGTEEILSNILDENCLLNI | not soluble
MAELDIGQHCQVQHCRQRDFLPFVCDGCSGIFCLEHRSKDSHGCSEVNVVKERPKTDEHKSY | soluble
MGSDKIHHHHHHMITQINIENFKCFSKKNMPVGALTMLTGFNAAGKSTALQALLLISQMVSGRHGDVSAALNGELVRMGTPGDVLRSDGSKEIKIGIETVEQKIQWTLVPSINLNNSLDLKDIHWASPNGVGDLTNISCNTSFNGLTPNEAPSDLSNLANEISDLIFISAVRMGTQDVYPSPTEPSPIRANVGMRGDYAPWWYEQHLDYEIDQKRVHSSEKALTLRRQLNAWLDQLFPGAEANAQKLPNTDLIQLLFRNSKTDVWRKPANIGYGLTYAFPILVAGLLARPGQLLIIDSPEAHLHPLGQSNMGKFLAKIAASGVQVLVETHSDHVLNGARLAVKSRVIDSRDVGILFFNRPPQKDGDPEHIIAPSIDKEGNLSDWPLGFFDQAENDLAVLADWG | not soluble
MSTQPDTSLRATKRLKTRISVEDAATALVLRDGFDNVTVEDICAAAEISKRTFFNYFDSKENAVFGDIQVDILPQLREEFLSHPHEDLPEAVIRLHMNLVFSGKDFDPHTRGEIIRRRKTIRHNNPERSFNYNALYHKVFINFKTLVNEYFEHFPEQRRLGGDVDVEATAVVLSSSYAIRFGFTLWADSPSASFSTLEESCLEALVHLRTINKGL | not soluble

— the DeepSol protein solubility set
